Assay: soluble on expression in E. coli; label from the status in PepcDB or PDB records

Sequence	soluble on expression in E. coli
MIDTHIHSDTRGLEDLELMAMCLDGVITLAHDPFEMKNIKVWEAHVEKLLINELERAKKVGLNLFICVGMHPRAIPPEIDEALDKIKSYINYNSRVVGIGEIGLEKATKEEKEVFIKQLLLAEELNMPAVVHTPRRNKEEVTKIILDEISTLNLKNRDIVIEHCNKETTKWVLDEEFYVGLTIQPGKLTPLEAVEIVKEYKDFADKILLNSDCSSNASDVLAVPRTVLKMKINGIEKDVIYKVAHKNAVNLFGLDI	not soluble
MIDWDDLECRVAREESRHQAGIGTCSLALQIGFFFDGLKRNINVDEESQRLTNVGRLFRAHSFEIKASLTSAYSSAKIYVPGLGTLLDDTPSERLDSILDARQQALPEDYADALVEQGKETAVDTVKGVFKEDWSQVLSNKLGDLVTMKSGFDATVSAAKKAATRALLEATEPIRDNPIVAELLMTGVDARVDLAKNKFKESIVLSKKENQLPIKLVQISVFGADLGAALARRFIDELLESVCTKVGNEYRYEDSKVEVIFAGLFDCTRRSSMDMGDTVATISDGAGLVARHPVVGLITTAFGAKVITFDKPLHPAVKKALHLIAAHERREYRPLLPLGPLRSGWREVLCPGISEDVTGGLLPDEQRPSAELCRVPLRQMYETARRAQVPFPNFSILDAKNPRVAQYFIMQDSRLGYSAKKYSEYYSKWVGKMNPTPEAFELHMIHYCFWLGEKLHDYKILRQNVSGSERDKLNAQWGWLIQVGRDAENVLRSRGLSRQMYRGADLVKFFNGIKRVPREADIFFNYFMHDFTSEELKFATLNEQANTMLRNNNFFVPRGIEILAVDDEAAALEHHHHHH	soluble
MIEENLKQKIHDKFVAAKKNGHLKVTHAESKKLKDPQTTTQYWVTFAPSLALKPDANKNSDSKAEDPFANPDEELVVTEDLNGDGEYKLLLNKFPVVPEHSLLVTSEFKDQRSALTPSDLMTAYNVLCSLQGDKDDDVTCERYLVFYNCGPHSGSSQDHKHLQIMQMPEKFIPFQDVLCNGKDHFLPTFNAEPLQDDKVSFAHFVLPLPESSDQVDEDLLAMCYVSLMQRALTFFQDWTNESPELTKSYNVLLTKKWICVVPRSHAKSGPPLMLNINSTGYCGMILVKDREKLENLTEDPHLVDKSLLQCGFPNTAGQKPTEYHY	not soluble
MIEFKNVSKHFGPTQVLHNIDLNIRQGEVVVIIGPSGSGKSTLLRCINKLEEITSGDLIVDGLKVNDPKVDERLIRQEAGMVFQQFYLFPHLTALENVMFGPLRVRGVKKEEAEKQAKALLAKVGLAERAHHYPSELSGGQQQRVAIARALAVKPKMMLFDEPTSALDPELRHEVLKVMQDLAEEGMTMVIVTHEIGFAEKVASRLIFIDKGRIAEDGSPQALIENPPSPRLQEFLQHVS	not soluble
MIEGKTLVVNPFIGGSAKNITDEQYISILKKIKEKMPDLNIIITSYTTDEERTEKLCKDIGKDKIFAFSNGASILNTASIIDRADVYFGASTGPTHIAGALGKKIVAIYPHKKTQSPTRWGVLGNSNVRYIIPDENNPNEDYKNPYLEHHHHHH	not soluble
MIELTITNATITAGDTPLLTNASLHVGSGECVALMGESGSGKTTLAQAILGYLAPGCRWCSGSIDVDGLNPLQLAPRSLRELRKRCAYVDQDPGAALPPGHSVRSIVRSRASLSDAQMLSIFGDFGLGDIDR	not soluble
MIERSLNATEKAIESIREGELVRRHTDLELRDMQISMNEDFDRIRGMMHELDEQIHKDRSGNSKWMNQKMEKAKATADQALASTLMVKDVQLLEKKVNILKESVVQVNKSFYKYEKDVDMNDLMDQVIDMVHRTEKKEQDALEAHATDEQAIGKAFRGAIEGLYGLKSSNSKVMEEAKLLAGEMRVFRDAASNKNFHTMISRIASNTATSGVPLKYSSGPESSFSTSAYTSFSKSANNSSMSGSN	not soluble
MIESKTYAVLGLGNGGHAFAAYLALKGQSVLAWDIDAQRIKEIQDRGAIIAEGPGLAGTAHPDLLTSDIGLAVKDADVILIVVPAIHHASIAANIASYISEGQLIILNPGATGGALEFRKILRENGAPEVTIGETSSMLFTCRSERPGQVTVNAIKGAMDFACLPAAKAGWALEQIGSVLPQYVAVENVLHTSLTNVNAVMHPLPTLLNAARCESGTPFQYYLEGITPSVGSLAEKVDAERIAIAKAFDLNVPSVCEWYKESYGQSPATIYEAVQGNPAYRGIAGPINLNTRYFFEDVSTGLVPLSELGRAVNVPTPLIDAVLDLISSLIDTDFRKEGRTLEKLGLSGLTAAGIRSAVE	soluble
MIFMHPKTLEILKMFEEINKIPRRSKNEEKLALWLMEWAKNHNFEAKTDALNNVLIKVPPTPGYENSPAIVLQGHMDMVCEKCRDSGHDFSKDPIICIYEGDWLRGDGTSIGADNGIALAIGLVLAESGIKGEIEHPPLELLFTVDEETGLTGASGLEEDFFEGRILLNLDSEDEGIFILGCAGGQNSRIFLPLQWESFDYGKGSGFGLFRISAEGLEGGHSGVEIHRQRANGIQLLARMLSALKEKVGKENLRLVFFSGGSVHNAIPNYAEAFIVLSRNNEKQAEDFVSGLQKSFRGEYAVSDPEITLQLKEVENGIIFEASGGKITRKEVPSDRVFSVETEEKLYGVLLGMPHGVHRVSDTIPGLVETSNNLATVRTGEKEVRIVSSQRSSVMSRLAEVTEKVETVAKLAGARVEHECGYPAWEPDLQSGLLMKCRHAYSGTFGKEPEIKVVHAGLECGVIGSKCECIEMISFGPTIKDPHSPAERVYIPSIEKVWVFLENLMKSYRLEHHHHHH	soluble
MIFNVRGENLEVTPALREYVEKKVGKLERYFDTTPVADVNVRMQVLNNLHIIEVTIPMSRLLLRAEEKHSDMYAAIDLVIEKLERQIRKHKTKVNRKFRQEGSLKYMFKNDLEPMDGMREEILLEEEDDLQVVRKKRFNLKPMDTEEAILQMDMLGHNFFVFSNAISGDTNVVYRRKDGKYGLIEPELEHHHHHH	soluble
MIFYFSGTGNSKWIAEQIAKAQNEVLVFMPNAIRDGIEEFVLADDEKVGFVFPVYSWGPPLSVLRFLDWITLSNYHSQYVFFVCSCGDDTGLTEELFRRALSRKGMECNAGFSVAMPNNYVLLPGFDVDKKELEKKKLDEAVGRVEEINDSITGKKIGFHCNEGSFPWFKTKVLNPLFNRFMTSAKPFYATDDCIGCKRCERICPVGNVVMIGWRPVWGMDCTSCLACYHVCPKHAVQYGRRTKRKGQYLNPNVSISHEAAAQLEHHHHHH	not soluble
MIFYFSGTGNSKWIANQLSKEQQEDLFFIPDAWKNDTWEFSLREDEKIGFVFPVYSWAPPVIVQEFIRKLVLKGYQQQYLFFVCSCGDDTGLTRQVMEKALAARGWRCNAGFSVIMPNNYVLFLGFDVDSKELEKKKLAEAVPALEKVSRLITGRETVFACKEGSLPFIKTRIINPLFVRYQMSPKPFHATSECIGCKRCEKSCPVGNITMKERRPVWGKNCTACLACYHVCPQHAVQYGKKTKGKGHYFNPDSAYLEHHHHHH	soluble
MIGLITTLYFVAKTAFIKLKVAVYKDKAKGSGNKNTIVIYSEGKRYWNVFLPICNEFEEHQKELVFYTSSEDDPVFEQHYTYVKPEYIGKGNKAFARLNMLEADICLMTTPGLDVYQLKRSKHVRHYSHILHALDDATSYRLFGLDYFDSVLLSGEYQVKGIRELESLRNLPPKNLRVVGCPYLDVLSEKIKNLPEKSSDFTVLIAPSWGASGILSKYGEQLITPLVETGWNIIIRPHPQSKTSEPDMLKRLEGKYKDVANFVWDYNSENIDSLSKADIMISDFSSVIFDYCFLFDKPFLYCNNEFDHRPYDSGDLKETPWKFSVLKEIGVELNSNSFDHIKEIISEACKSETLKENRLKAKDTAWQNRGCAGKAVYDFLTEIKTI	not soluble
MIGNLKLKRFEEVNLVLSGGAAKGIAHIGVLKALEELGIKVKRLSGVSAGAIVSVFYASGYTPDEMLKLLKEVNWLKLFKFKTPKMGLMGWEKAAEFLEKELGVKRLEDLNIPTYLCSADLYTGKALYFGRGDLIPVLLGSCSIPGIFEPVEYENFLLVDGGIVNNLPVEPLEKFKEPIIGVDVLPITQERKIKNILHILIRSFFLAVRSNSEKRKEFCNVVIEPPLEEFSPLDVNKADEIFLRGYESTLRIMRNFVKHLEHHHHHH	not soluble
MIGRKEKERERPYYRDPDDPEYIKDLQRPAVIKEDLSEMERRKRVQQILESKSFCHELEEVIRQECDTARTDPDHLQVLQKLSDLTVPQGNMSFGNLHTYGGNTIAIADLRGNEKYSKAERIQRNKLACLFRLADLFQWSQGIHNEISYRTNDEDNTFLMNPFGLLYHEITAATIVKIDENGKILDCGTLKAGVNQPAFLLHSAIYKAHPMVRCILHMHTAIVAAVASMKCGLLPLCKEAMVLGPVGYHDYQDIGDDDIQFDEIIANLGDKNVLFLRNQGFLVVGDTIEHATFLANNTVIACETQVRAARAGLDNLIIPEEKAIQRAFRNSRNTNSLKRNGTVDWRVGELEWESWMRVLDHANFQTGHVYRQPQLRPKSAMSTSMVNNNDVAVPPTTSAYGQIDETNLESVSAHRLALLRKEQERVRWMNSPNAYQKVEFLEYGADNPKKITKWVHDVNVPSASGTPVKISSVHQFSPASSNPKEFKEKQKAIKENNRLGTLSAGPQSQILDSVTYEDIALLIKPDNDGTVGQSSTADRAILIGTASKGIIDRQFQHHAQVYHQIYAPNPFSVETDADIKKYVDMVKAKNSQSAPVSARSGYSQYDEVEADTVSLMQGVREHKLSQAALSASDDGLNAGISPNNVRTSEESVNTSYMSQSVVFDYPDILRPIYRQETYV	not soluble
MIGRRHPYYPYLEAALEAASLARGIHLYYLEKGFTEGTKSGPTDLVTQADREAEEAVKGLLLSRFPEAGFLGEEGGSEGGKALRFIVDPLDGTVNYAHGFPFFAVSIALEAESAIQMGVVMDTARGEVFYALRGEGAYLNGRPIRVTGRESLVGSLLATGFPYDVAKDPENLTYFERALRKGLLVRRPGAAALDLAYVAAGRLEGFWEVKLNPWDVAAGWLLVEEAGGRVTDLEGNPYRLGSRYILATNGRVHEALRRTLLGLD	soluble
MIGVTSCISGDGKSFCSHNLARIYAISGKKTLLIRGDMRKAFNAPANLIPQGSMGLSQHLIGMATIDQIIHKGEIENLYQIIPGPVPPNASELVASQKMEEFIRIMKDKFEVVIMDSPPVGLVSDYMSVIKHIDANLYIVRYDYTPKETLEAIKDLKNKYPAQSHSIIFN	not soluble
MIHRPTAKENAKRFASVIQALHACETACAYCATECGKNGHAEAMGRCVSLCTDCARFCALARDFLERNSEFAELLLEDCAEICQQTMEECVHHAEGHCRKCAEACEQCKKACLEVAGAAPLSSAQQKELLAALLEHHHHHH	not soluble
MIIEHNGNIHKIARMTGNKNNFLEIILSDIHENIKIKPLTIKVKGENVINILPEEVSFYVKQGVDLIYEKYKRKFFISEISFCQSDSRPSSIYAFLTFHLLEDIIKNESPSNYT	not soluble
MIIMEKGVVSDSYEVAIARNPHLAEYLSKYRNETGRSPSFLVNIDSSLKSLAHVDVIYPVGDPIFIHIYERGKERRYKPIEPLLKDDEFEFMDAILDIIMSRASDYPPAENEEEQEKNIEDVYKKTVSVGSNKIKRNSVTLEKPLYDKMLYNVKKEIIGLGPLEPLIRDSHIEDISGIGPEDVYIVHKIFGSMPTDITFGSMERLMRFSKRLSERVGRPVSDKRPIVDATLPDGSRLSIVYSTDISQRGPSFTIRKFSEIPLSILNLIKYNTMSYEEAAYLWLALEYGQSVFVCGETASGKTTVVNAIIPFIRPESKIFSAEDTPEIRAPQKAWQQLVTRESGAEESRVTLYDLLRTALRSRPNYIIVGEIRGAEGAMAFQAMQTGHPVISTFHASSVKKMIQRFTGNPINIPVTFMDNLNIVLIQQAVYVGGKFLRRTTSINEIEGYYEDLGGVATRAVFEWDPSTDRHMFRGMNNSYILEEKIAKTAGLVDTSLIYNELFRRARILKDLADQKILDYYQVYEKIKEFYEGALANGY	not soluble

Reference: the DeepSol protein solubility set
